From US12018068B2, “Anti-O1 antibodies and uses thereof” (priority 2016, dated 2024)

B1: KPE33: human anti-K. pneumoniae O1 antigen antibody, VH SEQ ID NO:8, VL SEQ ID NO:9, isolated as IgG2 from donor #262 (antibody, V domains shown)
VH: EVQLVESGGALVQPGGSLRLSCAVSGFIFDDYAIHWVRRAPGKGLEWVSGIAWKSGATNYADSVKGRFAISRDNSKKSMYLQMNSLGTEDTALYYCTRRRASGDDTFYYFDYWGQGTLVTVSS
VL: EIVLTQSPATLSLSPGERATLSCRASQNVNTNLAWYQQRPGQSPRLLIYDASTRAAGLPARFSGSGSGTDFTLTISSLEPEDFAVYYCQQCTNWRYTFGQGTKLEIK
modifications: KPE33 VH Amino Acid Sequence; KPE33 VL Amino Acid Sequence
B2: 54H7: mouse hybridoma anti-O1 antigen antibody (Ms IgG3), VH SEQ ID NO:47, VL SEQ ID NO:48 (antibody, V domains shown)
VH: QVHLQQPGSELVRPGASVTLSCKASGYTFTNYWMQWVKQRPGQGLEWIGNIYPGSGNTNYDEKFRSKATLTVDTSSSTAYMHLTSLTSEDSAVYYCTRNWNFDYWGQGTTLTVSS
VL: DIQMTQSPSSLSASLGERVSLTCRASQDIGSSLNWLQQEPDGTIKRLIYATSSLDSGVPKRFSGSRSGSEYSLTISSLEAEDFVDYYCLQHTDSPYTFGGGTKLELK
modifications: 54H7 VH; 54H7 VL Amino Acid Sequence

Tests used:
[1] = tested on: Klebsiella pneumoniae of the LPS-O1 serotype; assay: primary screening, binding to whole bacteria
Text: KPA27 and KPE33 were isolated from the peripheral blood of two different immune donors: #487 and #262, respectively. […] KPA27 and KPE33 were isolated from immune donors as IgG2 antibodies.
KPB202 and KPJ4 were isolated from tonsillar B cells of two different donors: T6 (KPB202) and T8 (KPJ4). […] KPB202 and KPJ4 were isolated from donors as IgG1 and IgG2 antibodies, respectively.

[2] = tested on: clinical Klebsiella strains; assay: western blot binding to clinical isolates
Procedure: In order to determine if anti-O1 antigen antibodies bind to clinically relevant Klebsiella strains, the binding of KPE33 to clinical isolates was determined by western blot assay. The ability of KPE33 to bind to all of these strains as well as its ability to protect against four different strains in vivo indicate that KPE33 can kill many clinically relevant Klebsiella strains.

[3] = tested on: K. pneumoniae strain Kp8045 (O1:K1); assay: intranasal lung infection model, lung bacterial burden; assay type: in vivo, Klebsiella pneumoniae; conditions: C57BL/6 mice, 15 mg/kg, CFU 48 hours post infection
Procedure: The ability of anti-O1 antigen antibodies to reduce organ burden was tested in bacterial infection models. In these experiments, C57BL/6 mice were received from Jackson laboratories and maintained in a special pathogen free facility. All animal experiments were conducted in accordance with IACUC protocol and guidance. K. pneumoniae strains were grown on agar plates overnight and diluted in saline at proper concentration. The inoculum titer was determined by plating a serial dilution of bacteria onto agar plates prior to and post challenge.
Antibodies and controls at 15 mg/kg were administered 24 hours prior to bacterial infection. C57BL/6 mice were inoculated with 1e4 CFU Kp8045 (O1:K1) bacteria in 40 μl saline intranasally to induce pneumonia. The lung bacterial burden was measured by plating lung homogenates onto agar plates to determine CFU 48 hours post infection.

LPS = assay: endotoxemia LPS-induced sepsis model, survival; assay type: in vivo, Balb/c mice; conditions: 1 mg/kg or 5 mg/kg, 24 hours prior to LPS, vs control IgG (R347)
Procedure: In order to determine the protective effect of anti-O1 antigen antibodies, female mice (Balb/c), aged 6-8 weeks, were sensitized with D-galactose (D-Gal, 12 mg/kg), and subsequently challenged intraperitoneally (ip) with 10-50 ng of LPS 24 hours after anti-O1 antigen antibody administration. Antibody was administered at doses of 0.2 mg/kg, 1 mg/kg, or 5 mg/kg. Mouse survival was monitored up to 6 days post LPS challenge.

[4] = tested on: Kp43816 LPS and Kp15380 LPS; assay: serum cytokines after LPS challenge (MSD kit); assay type: in vivo, C57BL/6 mice; conditions: 3 hours after challenge with Kp43816 LPS and Kp15380 LPS
Procedure: In order to determine the effect of anti-O1 antigen antibodies on serum cytokines after LPS challenge, C57BL/6 mice were challenged with 0.3 mg/kg LPS intraperitoneally 24 hours after anti-O1 administration. 3 hours later, animals were sacrificed, and serum cytokines were measured using a Meso Scale Discovery (MSD) proinflammatory cytokine kit based on manufacturer's instruction. Polymyxin B (PMB) was used as a positive control. Serum IL-6, TNF-alpha, and CXCL1 concentration were plotted in Prism.

Kp8045 Klebsiella = assay: pneumonia model, 54H7 synergy with meropenem; assay type: in vivo, Klebsiella pneumoniae; conditions: antibody 1 mpk at 1 hour, meropenem 1.5 mpk at 4 hour post challenge
Procedure: The synergy of anti-O1 antigen antibodies and antibiotic was also assessed in the pneumonia mouse models. C57BL/6 mice were inoculated intranasally with 1e4 to 1e8 CFU of Kp8045 Klebsiella. Both sub-therapeutic dosage of antibodies (1 mpk) and meropenem antibiotic (1.5 mpk) were administered at 1 hour or 4 hour post bacterial challenge, respectively. Mouse survival was monitored daily until up to day 8.

| Molecule | binding to bacteria in primary screening [1] | binding to clinical isolates ([2]; Table 8) | binding of KPE33 to clinical Klebsiella strains ([2]; clinical isolates listed in Table 8 (rows 1-36 CRE, rows 37-134 ESBL, rows 135-184 antibiotic-susceptible)) | lung bacterial burden [3] | survival, endotoxemia model (LPS) | serum IL-6 [4] | serum KC (CXCL1) [4] | serum TNF-alpha [4] | survival, combination with meropenem, pneumonia Kp8045 (Kp8045 Klebsiella) |
| --- | --- | --- | --- | --- | --- | --- | --- | --- | --- |
| B1 | bind to Klebsiella pneumoniae of the LPS-O1 serotype | binds not only to a large and diverse group of clinical strains, but also to antibiotic resistant clinically relevant strains | Summary of clinical Klebsiella strains which KPE33 binds. | significantly reduced organ burden |  |  |  |  |  |
| B2 |  |  |  |  | protects mice | reduces | reduces | reduces | significant synergy and better protection than monotherapy |
